The values that follow come from patent US20140329275A1, “BIOCATALYSIS CELLS AND METHODS” (REGENTS OF THE UNIVERSITY OF MINNESOTA, priority 2011, published 2014).

Substrate in the series: CC(C)CC=O
Nature of the series: Enzymatic assay of PadA. It counts as biochemical, E. coli. The following applies: other: 0.5 mM NAD+, pH 8.0, 25 nM PadA. As to the method:
Protein concentration was measured by UV absorbance at 280 nm. […] Enzymatic reactions were initiated by adding 25 nM PadA. The reactions were monitored by measuring the UV absorbance at 340 nm (extinction coefficient, 6.22 mM^−1 cm^−1) as a consequence of NADH generation.

B1: PadA (Escherichia coli K-12) (protein)
chain: MTEPHVAVLSQVQQFLDRQHGLYIDGRPGPAQSEKRLAIFDPATGQEIASTADANEADVDNAVMSAWRAFVSRRWAGRLPAERERILLRFADLVEQHSEELAQLETLEQGKSIAISRAFEVGCTLNWMRYTAGLTTKIAGKTLDLSIPLPQGARYQAWTRKEPVGVVAGIVPWNFPLMIGMWKVMPALAAGCSIVIKPSETTPLTMLRVAELASEAGIPDGVFNVVTGSGAVCGAALTSHPHVAKISFTGSTATGKGIARTAADHLTRVTLELGGKNPAIVLKDADPQWVIEGLMTGSFLNQGQVCAASSRIYIEAPLFDTLVSGFEQAVKSLQVGPGMSPVAQINPLVSRAHCDKVCSFLDDAQAQQAELIRGSNGPAGEGYYVAPTLVVNPDAKLRLTREEVFGPVVNLVRVADGEEALQLANDTEYGLTASVWTQNLSQALEYSDRLQAGTVWVNSHTLIDANLPFGGMKQSGTGRDFGPDWLDGWCETKSVCVRY
notes: made in house
In the case of B1, the Km amounted to 1946 µM and the kcat was 18.6 s⁻¹.
